Test [1] deals with KS-PPT di-domain construct of the S. cerevisiae FAS α-chain (S. cerevisiae). The test can be described thus: SEC.
Test [2] shares this target. The experiment in a line: SEC. The source holds these as a separate data set. On the technique in general: In gel filtration, larger molecules generally elute earlier.

Like-named read-outs stand apart in the source and are kept apart here.

In general, stoichiometry N refers to the number of molecules, sites or subunits per partner or assembly.

For the substance “KS-PPT di-domain construct of the S. cerevisiae FAS α-chain (domain or fragment)”, the stoichiometry N stood at 2 in test [1] and 2.5 in test [2].

Source of the values: publication doi:10.1101/336578.
